Literature values as cited in PMC12583094, “A novel antioxidant peptide from black soybean [Glycine max (L.) Merr.] with verified MPO interaction and multi-scale antioxidant activity” (Frontiers in Nutrition, 2025).

Target: MPO (Homo sapiens) (UniProt P05164)
Test: SPR

Chain of MPO (Homo sapiens) (P05164 165-273, chain 1 of 2): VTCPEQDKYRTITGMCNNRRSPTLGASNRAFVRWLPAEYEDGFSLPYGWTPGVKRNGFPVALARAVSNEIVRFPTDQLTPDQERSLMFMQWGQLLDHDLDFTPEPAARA
Chain of MPO (Homo sapiens) (P05164 279-745, chain 2 of 2): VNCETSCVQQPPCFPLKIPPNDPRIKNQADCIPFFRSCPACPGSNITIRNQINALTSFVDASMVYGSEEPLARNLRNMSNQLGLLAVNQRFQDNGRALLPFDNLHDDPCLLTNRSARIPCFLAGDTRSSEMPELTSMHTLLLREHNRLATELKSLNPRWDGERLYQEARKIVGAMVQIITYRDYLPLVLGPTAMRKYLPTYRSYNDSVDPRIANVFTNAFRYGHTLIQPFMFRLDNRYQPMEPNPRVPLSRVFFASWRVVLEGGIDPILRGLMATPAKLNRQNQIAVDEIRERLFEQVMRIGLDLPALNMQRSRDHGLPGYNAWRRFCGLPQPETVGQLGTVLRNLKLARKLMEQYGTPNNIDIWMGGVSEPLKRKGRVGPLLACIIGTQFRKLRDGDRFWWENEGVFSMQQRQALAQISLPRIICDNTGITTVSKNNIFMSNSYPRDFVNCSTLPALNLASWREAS

In the case of SPIN (from UniProt A0A0H3K703), the Kd is given as 10 nM.
